Reference: patent US6309872A, “Polypeptides having glucoamylase activity and nucleic acids encoding same” (Novozymes Biotech, Inc, priority 2000, dated 2001)

Substrate: OC[C@H]1O[C@H](O[C@H]2[C@H](O)[C@@H](O)[C@@H](O[C@H]3[C@H](O)[C@@H](O)C(O)O[C@@H]3CO)O[C@@H]2CO)[C@H](O)[C@@H](O)[C@@H]1O
Test: purified protein, by the assay type
Conditions: other: maltotriose hydrolysis at pH 4, enzyme 11 μg/ml or 0.18 μM

B1: Thielavia terrestris ATCC 20627 glucoamylase, wild type, recombinant (expressed in Aspergillus oryzae), SEQ ID NO:2 (Thermothielavioides terrestris NRRL 8126) (protein)
chain: PEASRVRREGEVVKRSVDSFIATESPIALSNLLCNIGSTGCHASGVASGIVVASPDKTNPDYWYTWTRDSALTFKCVVDTFTNSYDASLQAEIQNYIVAQAHLQGVSNPSGSLSDGSGLGEPKFNVDMSQFTGAWGRPQRDGPALRAIALIAYSKWLISNGYTSTASSIVWPVIKNDLAYVAQYWNNTGFDLWEEVSGSSFFTVANQHRALVEGAALATSLGTSCSACSAVAPQILCFLQSFWSPSSGYILANINENNGRSAKDANTLLGSIHTFDPAAGCDAATFQPCSDRALANHKVVTDAFRSIYSINSGIAEGSAVAVGRYPEDSYFGGNPWYLNTLAAAEQLYDALYVWKKQGSITVTSTSLAFFKDFSSSITPGTYSSSTSTYTTLYNAISAYADGYMNIVAQYAQTNGSLSEQFSKTNGEPLSAYDLTWSYAAFLTAAARRAGVVPPSWGAASANSVPAQCSATSVVGSYTSATATSFPPSQTPASSTSAGSSPASSTTATATACSTPTAVAVTFNERVTTQWGQTIKVVGDAAALGGWDTSKAVPLSAAGYTASDPLWSGTVDLPAGLAVQYKYINVAADGGVTWEADPNHSFTVPAACGTTAVTRDDTWQ
B1 was tested, and the Km was 330 ± 70 µM and the kcat was “(5.5±0.5)×10^3 min^-1”.
